Results as given in US20180335429.

What was measured:
[1] = tested on: MMP substrate, 5-FAM-GGPLGVRGKK(CPQ2)-PEG2-C, presented on the iron-oxide nanoparticle (ABN) surface
[2] = tested on: T1, thrombin substrate, 5-FAM-GGfPRSGGGK(CPQ2)-PEG2-C, presented on the nanoparticle surface
T1 sequence: GGFPRSGGGKC

recombinant MMP-9 (Enzo Life Sciences), sequence (chain, as listed by the source): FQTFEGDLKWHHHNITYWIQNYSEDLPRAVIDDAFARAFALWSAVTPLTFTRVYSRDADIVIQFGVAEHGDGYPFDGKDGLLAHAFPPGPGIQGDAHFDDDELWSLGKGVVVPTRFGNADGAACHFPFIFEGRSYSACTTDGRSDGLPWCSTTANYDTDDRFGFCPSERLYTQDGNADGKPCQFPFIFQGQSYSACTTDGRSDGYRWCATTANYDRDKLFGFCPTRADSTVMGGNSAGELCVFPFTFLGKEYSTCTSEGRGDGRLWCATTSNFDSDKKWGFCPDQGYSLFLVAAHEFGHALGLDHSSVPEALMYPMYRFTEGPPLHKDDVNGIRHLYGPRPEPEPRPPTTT

Substance	cleavage velocity (V) at 6 µM substrate, high end over the tether lengths tested (0, 4, 24 and 114 PEG subunits) [1]	cleavage velocity (V) at 6 µM substrate, low end over the tether lengths tested (0, 4, 24 and 114 PEG subunits) [1]	fold change of cleavage with tether length at 6 µM substrate [1]	cleavage velocity (V) at 6 µM substrate, long tether end [1]	cleavage velocity (V) at 6 µM substrate, short tether end [1]	cleavage of the substrate at varying linker lengths [2]
recombinant MMP-9 (Enzo Life Sciences)	cleavage velocity (V) increased from 0.24 to 0.96 nM s^-1 at 6 µM	cleavage velocity (V) increased from 0.24 to 0.96 nM s^-1 at 6 µM	MMP9 cleavage was found to increase 4-fold for 6 µM of substrate	–	–	–
thrombin (Haematologic Technologies)	–	–	thrombin cleavage decreased 1-fold at the same substrate concentration	V at 6 µM of substrate decreased from 0.29 to 0.01 nM s^-1	V at 6 µM of substrate decreased from 0.29 to 0.01 nM s^-1	thrombin cleavage of a thrombin-selective substrate (fPRSGGG ...) was optimally presented at an intermediate length
